The target in test [1] is T1, p3-40.
T1 construct: also called Aβ17-40; 17-40
T1 peptide: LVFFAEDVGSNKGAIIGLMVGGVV
Kind of test: sandwich ELISA, 1A10 capture, HRP-2G2 detection. On the technique in general: ELISA stands for enzyme-linked immunosorbent assay.

The target of test [2] is T2, p3-42.
T2 construct: also called Aβ17-42; 17-42
T2 peptide: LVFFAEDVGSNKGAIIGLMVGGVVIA
Kind of test: sandwich ELISA, 44A3 capture, HRP-2G2 detection.

B1: 2G2 antibody (antibody, V domains shown)
VH: QVQLQQPGSELVRPGASVKLSCEASGYTFTSYWIHWVKQRPGQGLEWIGNIYPGSGDTNYDERFKSKATLTVDTSSNTAYMQLISLTSDDSAVYYCTRGKNWGQGTTLTVSS
VL: DIQMNQSPSSLSASLGDTITITCHASQNINVWLSWYQQKPGNIPRLLIYKVSNLHTGVPSRFSGSGSGTGFTLTISSLQPEDIATYYCQQGQSYPLTFGGGTKLEIR
notes: Used unlabelled in the Western blot and conjugated to horseradish peroxidase (HRP) as detection antibody in the sandwich ELISAs; only the CDRs are; also called clone 2G2; 2G2 monoclonal antibody
Consider B1, for which the binding result in test [1] and in test [2] was “binds” throughout.

These data come from patent WO2014167826A1 (dated 2014).
